In experiment [1] the target is T1, human DLL3 on SHP-77 cells (human, UniProt Q9NYJ7 27-618).
T1 construct: also called DLL3-expressing cells (SHP-77)
T1 sequence: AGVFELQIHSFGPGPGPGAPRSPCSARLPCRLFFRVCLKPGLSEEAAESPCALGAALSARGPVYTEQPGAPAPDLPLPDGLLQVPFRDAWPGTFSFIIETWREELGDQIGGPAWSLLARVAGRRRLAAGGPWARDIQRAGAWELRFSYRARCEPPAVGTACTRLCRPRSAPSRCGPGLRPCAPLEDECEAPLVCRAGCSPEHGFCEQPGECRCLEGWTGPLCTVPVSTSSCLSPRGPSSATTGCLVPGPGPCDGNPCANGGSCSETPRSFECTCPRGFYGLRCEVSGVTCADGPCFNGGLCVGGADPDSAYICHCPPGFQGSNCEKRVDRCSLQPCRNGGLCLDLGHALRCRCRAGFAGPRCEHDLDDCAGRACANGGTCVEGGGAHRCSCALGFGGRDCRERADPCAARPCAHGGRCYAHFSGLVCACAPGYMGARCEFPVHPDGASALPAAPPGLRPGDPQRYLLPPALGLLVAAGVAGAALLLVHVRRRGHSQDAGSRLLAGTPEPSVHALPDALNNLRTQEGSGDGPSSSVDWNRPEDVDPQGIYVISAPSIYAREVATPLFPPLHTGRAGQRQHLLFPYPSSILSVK
The experiment can be described thus: flow cytometry, SHP-77 cells. (In flow cytometry, cells or beads pass a laser one at a time.)

The target in experiment [2] is T1, human DLL3 on SHP-77 cells. Nature of the experiment: flow cytometry, SHP-77 cells. The method in brief:
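Trypsinised SHP-77 cells in 1% BSA/PBS were incubated with antibody (100 nM top, 10-fold steps, 7 concentrations) for 1 h at 4° C. Bound antibody was detected with goat anti-human IgG Fc-PE for 0.5 h at 4° C and read as PE mean fluorescence intensity. EC50 and Top MFI were derived from the curves.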
This is another data set of the same source.

Experiment [3] deals with T2, human DLL3 antigen protein (Kactus Biosystems, Cat. No. DLL-HM103) (human, UniProt Q9NYJ7 27-492).
T2 sequence: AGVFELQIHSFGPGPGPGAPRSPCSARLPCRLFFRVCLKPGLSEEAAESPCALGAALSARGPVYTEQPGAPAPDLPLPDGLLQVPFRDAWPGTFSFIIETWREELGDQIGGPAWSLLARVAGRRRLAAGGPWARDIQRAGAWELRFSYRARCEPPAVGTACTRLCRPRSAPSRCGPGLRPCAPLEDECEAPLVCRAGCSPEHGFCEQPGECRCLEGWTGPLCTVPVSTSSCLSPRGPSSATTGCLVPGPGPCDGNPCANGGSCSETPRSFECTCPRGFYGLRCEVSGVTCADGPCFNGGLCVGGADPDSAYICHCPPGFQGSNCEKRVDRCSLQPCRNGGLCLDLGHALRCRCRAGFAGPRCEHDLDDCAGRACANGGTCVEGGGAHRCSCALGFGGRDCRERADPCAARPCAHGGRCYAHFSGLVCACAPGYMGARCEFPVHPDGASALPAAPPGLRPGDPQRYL
The experiment can be described thus: affinity assay with human DLL3 antigen protein (kinetics; method not restated, Biacore as in Example 18 implied). A general note: Surface plasmon resonance follows binding to a sensor surface in real time, without labels.

In experiment [4] the target is T3, human DLL4 (Sino Biological, Cat. No. 10171-H08H) (human, UniProt Q9NR61 27-529).
T3 construct: also called family protein DLL4
The experiment can be described thus: ELISA, plate coated with human DLL4 at 1 ug/mL, OD 450nm. As to the method: The antigenic proteins human DLL1 (SinoBiological, cat. No. 11635-H08H) or human DLL4 (SinoBiological, cat. No. 10171-H08H) were dissolved in 1×PBS at a concentration of 1 μg/mL. […] The antigen was washed three times with PBST, 300 μL/well. The antigen was blocked with 1% BSA (in PBST), 200 µL/well, and incubated at 37° C. for 1.5 hours.
Antibodies to be tested were diluted with 1% BSA (in PBS) at a starting concentration of 100 nM, downwards by a 10-fold gradient for 7 concentrations. The plates were washed three times with PBST, 300 μL/well. The diluted antibody was added to an ELISA plate at 100 μL/well and incubated at room temperature for 2 hours. The antibodies were washed three times with PBST, 300 μL/well. The secondary antibodies (goat anti-human IgG Fc for DLL4 (HRP), 1:20000 dilution; HRP goat anti-mouse IgG (H+L) for DLL1, 1:10000 dilution) were diluted with 1% BSA in PBST. The diluted secondary antibodies were added to the ELISA plate at 100 μL/well and incubated at room temperature for 1 hour. The plates were washed 6 times with PBST, 300 μL/well. The developing solution (TMA and TMB 1:1 mixed) was prepared. The developing solution was added to the plate, 100 μL/well, and incubated in the dark for 5 min. 50 μL of ELISA stop solution was added to the plate and shaken well.

These results are taken from patent US20240239878A1 (SHANGHAI QILU PHARMACEUTICAL RESEARCH AND DEVELOPMENT CENTRE, published 2024).

Read-outs that look alike come from different tables or passages of the source.

T3 sequence (Q9NR61 27-529 limits assumed): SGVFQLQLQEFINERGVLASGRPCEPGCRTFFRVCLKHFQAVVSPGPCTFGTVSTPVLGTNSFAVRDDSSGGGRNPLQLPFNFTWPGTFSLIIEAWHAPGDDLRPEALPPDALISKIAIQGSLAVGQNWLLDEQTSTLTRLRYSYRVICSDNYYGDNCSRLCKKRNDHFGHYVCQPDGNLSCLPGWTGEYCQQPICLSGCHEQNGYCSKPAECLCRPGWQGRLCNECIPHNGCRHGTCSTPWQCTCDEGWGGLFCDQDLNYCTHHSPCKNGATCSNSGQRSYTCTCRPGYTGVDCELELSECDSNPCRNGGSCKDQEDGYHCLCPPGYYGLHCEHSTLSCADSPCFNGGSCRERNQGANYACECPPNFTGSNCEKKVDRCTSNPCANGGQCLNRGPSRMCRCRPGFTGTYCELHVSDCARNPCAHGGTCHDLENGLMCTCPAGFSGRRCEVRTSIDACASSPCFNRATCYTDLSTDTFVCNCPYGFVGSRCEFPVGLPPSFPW

B1: hDLL3-3-1 camelid-derived humanized anti-DLL3 antibody (antibody, human IgG1, V domains shown)
VH: EVQLVESGGGLVQPGGSLRLSCAASTYTISSGYMGWFRQAPGKEREGVAAIYIGGSTTLYADSVKGRFTISRDNSKNTLYLQMNSLRAEDTAVYYCAAQLRPNSAYHPLDGRKYNYWGQGTLVTVSS
With B1, in experiment [1], the EC50 (usually the midpoint of the concentration-response curve) came out at 0.068 nM and the “Top MFI” value was found to be 1080 MFI.

B2: H2-39E2D11 mouse hybridoma-derived humanized anti-DLL3 antibody (antibody, V domains shown)
VH: QVQLVQSGAEVKKPGASVKVSCKASGYTFISYWITWVRQAPGQGLEWMGDIYPGSGSTTNYNEKFKSRVTMTRDTSTSTVYMELSSLRSEDTAVYYCARETTVGGAYAMDYWGQGTLVTVSS
VL: EIVLTQSPATLSLSPGERATLSCRASQSINNNLHWYQQKPGQAPRLLIKYVSQSISGIPARFSGSGSGTDFTLTISSLEPEDFAVYYCQQTNSWPLTFGGGTKLEIK
On to B2, for which, in experiment [2], the EC50 was 1.12 nM and the “Top MFI” value is 1570 MFI. Also, in experiment [3], the Kd – broadly, the constant that tells how readily two partners part at equilibrium – is 0.739 nM; the dissociation rate constant (koff) (usually a measure of how fast the partners let go of each other) came to 0.000134 s⁻¹; the kon (commonly the second-order rate constant of association) worked out at 181000 M⁻¹ s⁻¹. Also, in experiment [4], the binding result is recorded as “no binding (tested: 100 nM)”.
